The source of these data is US20240327512A1 (DUKE UNIVERSITY, published 2024).

T1: human TREM2 (Triggering Receptor Expressed on Myeloid cells-2), wild-type (human, UniProt Q9NZC2 19-230)
T1 construct: whole, on cells; also called wt TREM2; human wild-type TREM2
T1 sequence (looked up): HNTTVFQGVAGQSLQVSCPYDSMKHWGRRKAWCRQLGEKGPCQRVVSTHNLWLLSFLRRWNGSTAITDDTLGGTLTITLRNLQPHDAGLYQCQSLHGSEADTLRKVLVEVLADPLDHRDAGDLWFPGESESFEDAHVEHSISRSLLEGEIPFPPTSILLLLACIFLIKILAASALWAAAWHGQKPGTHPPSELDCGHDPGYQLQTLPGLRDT

B1: antibody clone 21A3 (antibody, V domains shown)
VH: EVKLLESGGGLVQPGGSMRLSCAASGFTFTDFYMNWIRQPAGKAPEWLGLIRNKANGYTTQYNPSVKGRFTISRDNTQNMLYLQMNTLRGEDTATYYCARIGINNGGSLDYWGQGVMVTVSS
VL: DILINQSPASLTVSAGEKVTMSCKSSQSLLYSEKNQDYLAWYQQKPGQSPKLLMYGASYRHTGVPDRFTGSGSGTDFTLTISSVQAEDLADYYCEQTYSYPYTFGAGTKLELK
notes: Rat monoclonal IgG from hybridoma; also called TREMX antibody
B2: antibody clone 8A11 (antibody, V domains shown)
VH: B1 VH with A55T, N56K, Q61E, P64T, T87S, G90P, I103V
VL: B1 VL with N5I, E17A, K18R, K34N, S49F, M54I, Y59N
notes: as for B1
B3: antibody clone 1G6 (antibody, V domains shown)
VH: B1 VH with M18L, A23V, Y58F, Q61E, N79H, G90A
VL: B1 VL with A15T, K34N, N35K, S49F, M54I, Y59N, S82N, S83I
notes: as for B1
B4: antibody clone 7A12 (antibody, V domains shown)
VH: B1 VH
VL: B1 VL
notes: as for B1
B5: antibody clone 14D3 (antibody, V domains shown)
VH: B1 VH with S7F, K43R, A55T, N56K, Q61E, P64R, T87S, G90P, I103V
VL: B1 VL with N5I, E17A, K18R, K34N, S49F, M54I, Y59N
notes: as for B1
B6: antibody clone 18F9 (antibody, V domains shown)
VH: B1 VH with A23V, A24V, P40A, A55V, T59R, Q61E, T77I, G90A
VL: B1 VL with K34N, S49F, M54I, Y59N
notes: as for B1
B7: antibody clone 14D8 (antibody, V domains shown)
VH: B1 VH with Q61V
VL: B1 VL with A15T, K24R, S49F, M54I
notes: as for B1
B8: antibody clone 10C3 (antibody, V domains shown)
VH: B1 VH with K43E, A44T, A55T, N56K, Q61E, T87S, G90P, I103T
VL: B1 VL with N5I, E17A, K18R, K34N, S49F, M54I, Y59N
notes: as for B1
B9: antibody clone 15C5 (antibody, V domains shown)
VH: B1 VH with N56Y, Q61E, N79D, G90A, N105Y
VL: B1 VL with M21V, K34S, S49F, M54I, D91H
notes: as for B1
B10: antibody clone 9D10 (antibody, V domains shown)
VH: EVQLVESGGGLVQPGRSLKLSCAASGFTFSDYGMAWVRQAPTKGLEWVASISNSGGRTFYRDSVKGRFTVSRDNAKSTLYLQMDSLRSEGTATYYCTTIGGGSTFDYWGQGVMVTVSS
VL: DVVMTQTPPSLSVAIGQSVSISCKSSQSLVYSDGKTYLHWLLQSPGRSPKRLIYQVSNLGSGVPDRFSGTGSQKDFTLKISRVEAEDLGVYYCAQTTHFPPTFGSGTKLEIK
B11: antibody clone 7F12 (antibody, V domains shown)
VH: B10 VH with D31N, A49T, N53Y, F59Y, V70I, G90D, T91S, T98P, I99V
VL: B10 VL
B12: antibody clone 14B3 (antibody, V domains shown)
VH: B10 VH with T28S, D31N, S54N, V70I, D84H, G90D
VL: B10 VL with I21M, R47G
B13: antibody clone 13F4 (antibody, V domains shown)
VH: B10 VH with Q3H, G26R, D31N, G66A, V70I, N74S, K76E, G90D
VL: B10 VL

Changes are numbered by the printed parent chain. Bounds are passed on as bounds.

In one assay the target is T1, human TREM2 (Triggering Receptor …). In words: hybridoma supernatant screen: peptide ELISA and detection of TREM2 on the cell surface. On the procedure: Human TREM2-reactive hybridoma supernatants are screened for their ability to detect TREM2 on the cell surface of HEK293 Flp-In cells stably overexpressing human wild-type TREM2. This procedure is described in Kleinberger, G., et al., TREM2 mutations implicated in neurodegeneration impair cell surface transport and phagocytosis. Sci Transl Med, 2014. 6(243): p. 243. In particular, HEK293 Flp-In cells either expressing human full-length TREM2 or empty vector (control) are incubated with the respective TREM2-reactive supernatants. Binding of TREM2-reactive supernatants is visualized using isotype-specific antibodies. A detailed description of the generation and selection of monoclonal antibodies against the TREM2 cleavage site is given in the Examples.
A peptide comprising the amino acid sequence of residues 145-155 (SEQ ID NO:2) of human TREM2 or residues 153-162 (SEQ ID NO:3) of human TREM2 was synthesized and coupled at the N-terminus to ovalbumin or biotin (Peps4LS, Heidelberg, Germany). Rats were immunized subcutaneously (s.c.) and intraperitoneally (i.p.) with a mixture of 50 μg OVA-coupled peptide in […] PBS, 5 nmol CpG2006 (TIB MOLBIOL, Berlin, Germany), and […] incomplete Freund's adjuvant. After 6 weeks, a boost without Freund's adjuvant was given i.p. and s.c. 3 days before fusion. Fusion of the myeloma cell line P3X63-Ag8.653 with the rat immune spleen cells was performed using polyethylene glycol 1500 according to standard procedure (Koehler and Milstein, Nature. 1975, 256:495-497). After fusion, the cells were plated in 96-well plates using RPMI 1640 with 20% fetal calf serum, penicillin/streptomycin, glutamine, pyruvate, and non-essential amino acids supplemented with HAT HybriMax medium supplement (Sigma,). Hybridoma supernatants were tested in an enzyme-linked immunoassay using biotinylated peptides (0.2 μg/ml) comprising the amino acid sequence of residues 145-155 of human TREM2 or residues 153-162 of human TREM2 bound to avidin-coated plates. After blocking with PBS/2% FCS, hybridoma supernatants were added for 30 min. After one wash with PBS, bound antibodies were detected with a cocktail of HRP-conjugated mAbs against the four rat IgG isotypes. HRP was visualized with ready to use TMB substrate (1-Step™ Ultra TMB-ELISA, Thermo).
With B1, the binding result was “binds”.
Regarding B2, the binding result is given as “binds”.
Still for that read-out and setting: under B3 stands “binds”; under B4, “binds”.
As to B5, the binding result was “binds”.
The same measure, in the same setting: under B6 stands “binds”; under B7, “binds”; under B8, “binds”.
For the molecule B9, the binding result is recorded as “binds”.

The target is the same in a further assay. The assay can be described thus: cell-based or functional assay.
For the molecule B10, the “decrease of TREM2 cleavage” value is roughly 70% and the “increase of the level of mature TREM2” value was no more than 5 fold.
With B11, the “decrease of TREM2 cleavage” value is roughly 70% and the “increase of the level of mature TREM2” value was no more than 5 fold.
In the case of B12, the “decrease of TREM2 cleavage” value was roughly 70% and the “increase of the level of mature TREM2” value was no more than 5 fold.
The like results for B13 were, in that order, roughly 70% and no more than 5 fold.
